{"source": "patent US10413588B2", "about": "“Probiotic function of human intelectin” (Wisconsin Alumni Research Foundation, priority 2015, dated 2019)", "molecules": {"B1": {"name": "hIntL-1: human lectin intelectin-1, accession no. Q8WWA0; recombinant disulfide-linked trimer from HEK 293T cells, used also N-terminally Strep-tagged (Strep-hIntL-1) (protein, listed as Homo sapiens)", "chain": "MNQLSFLLFLIATTRGWSTDEANTYFKEWTCSSSPSLPRSCKEIKDECPSAFDGLYFLRTENGVIYQTFCDMTSGGGGWTLVASVHENDMRGKCTVGDRWSSQQGSKAVYPEGDGNWANYNTFGSAEAATSDDYKNPGYYDIQAKDLGIWHVPNKSPMQHWRNSSLLRYRTDTGFLQTLGHNLFGIYQKYPVKYGEGKCWTDNGPVIPVVYDFGDAQKTASYYSPYGQREFTAGFVQFRVFNNERAANALCAGMRVTGCNTEHHCIGGGGYFPEASPQQCGDFSGFDWSGYGTHVGYSSSREITEAAVLLFYR"}}, "key": {"[1]": {"test": "Microbial Glycan Microarray (MGMv2)", "assay_type": "binding, Shigella boydii", "conditions": "Strep-hIntL-1 50 μg/mL; terminal α-Galf residue", "description": "(§1) Strep-hIntL-1 was used to interrogate the Microbial Glycan Microarray version 2 (MGMv2). Construction of the MGMv2 is previously described. Briefly, bacterial polysaccharide samples were dissolved and diluted to 0.5 mg/mL in printing buffer (150 mM sodium phosphate buffer (8.4)+0.005% Tween-20). Samples were immobilized on NETS-activated glass slides (SlideH, Schott/Nexterion) using a MicroGrid II (Digilab) contact microarray printer equipped with SMP-4B printing pins (Telechem). Six replicates of each bacterial glycan sample were printed. Covalent coupling of glycans to the surface was facilitated by incubation for 1 hour postprint at 100% relative humidity. The remaining reactive NHS-moieties were quenched using a blocking solution (50 mM ethanolamine in 50 mM borate buffer (9.2)). Blocked slides were stored at −20° C. until assays were performed. […] The Strep-Tag® II on bound hIntL-1 was detected using StrepMAB-Classic Chromeo647 (10 μg/mL, IBA GmbH Lifesciences) diluted in binding buffer applied directly to the array surface and allowed to incubate for 1 hour. […] Signal data was calculated as the average of 4 values after removing the high and low values of the 6 replicates. Data were plotted using Excel (Microsoft) as average Relative Fluorescence Units (RFU) versus print identification number. […]"}, "[2]": {"test": "hIntL-1 carbohydrate binding ELISA-like assay", "conditions": "ligands other than β-Galf", "description": "To fabricate carbohydrate-displaying surfaces, 0.5 μg of streptavidin (Prozyme, cat. no. SA20) was adsorbed onto a Maxisorp (Nunc) flat bottom 96 well plate in PBS. Wells were washed with PBS and then coated with 5 μM of carbohydrate-biotin ligand in PBS for 1 hour at 22° C. Wells were blocked with bovine serum albumin (BSA) in ELISA buffer (20 mM HEPES (7.4) 150 mM NaCl, 10 mM CaCl2, and 0.1% tween-20). Samples containing hIntL-1 were prepared by serial dilution into ELISA buffer+0.1% BSA and added to wells for 2 hours at 22° C. Wells were washed four times with ELISA buffer. Bound hIntL-1 was detected using 0.75 μg/mL of a sheep IgG hIntL-1 antibody (R&D Systems, cat. no. AF4254) in ELISA buffer+0.1% BSA for 2 hours at 22° C. Wells were washed with ELISA buffer. A donkey anti-sheep IgG horseradish peroxidase (HRP) conjugate (Jackson ImmunoResearch Laboratories) was added at a 1:5,000 dilution in ELISA buffer+0.1% BSA for 1 hour at 22° C. Wells were washed and hIntL-1 was detected colorimetrically with addition of 1-Step Ultra TMB-ELISA (Pierce). Once sufficient signal was achieved (typically <2 min.), the reaction was quenched with addition of equal volume 2 M H2SO4. Plates were read at 450 nm on an ELx800 plate reader (Bio-Tek). When testing the Ca^2+ dependency of hIntL-1, 1 mM EDTA replaced 10 mM CaCl2 in all steps. Data were analyzed on Prism6 (GraphPad). […]"}, "[3]": {"test": "Microbial Glycan Microarray (MGMv2)", "assay_type": "binding, E. coli", "conditions": "Strep-hIntL-1 50 μg/mL; terminal α-Galf residue", "description": "as §1"}, "[4]": {"system": "adult male fecal microbiome", "test": "Flow cytometry binding to adult fecal microbiome", "set-up": "species or system human", "conditions": "adult fecal sample, 15 μg/mL Strep-tagged-hIntL-1, 10 mM CaCl2", "description": "Human fecal samples provide a non-invasive proxy of the intestinal microbiome of a patient. The inventors have isolated the intestinal microbiome from human fecal samples and analyzed it for hIntL-1 binding. The isolated microbiome was fixed using an aqueous solution of 1% formaldehyde. Cells were stained as described elsewhere, using either a solution including calcium ions (100 mM) or one containing the calcium ion chelator EDTA. Microbes were exposed to 20 mM HEPES (pH 7.2), 150 mM NaCl, 10 mM CaCl2, 15 μg/mL Strep-tagged-hIntL-1, 0.1% bovine serum albumin (BSA), 0.05% tween-20, 2 μg/mL StrepMAB Classic conjugated to Oyster 645 (IBA Lifesciences, cat. no.: 2-1555-050). To test for a role for calcium ions, cells were exposed to a solution of 20 mM HEPES (pH 7.2), 150 mM NaCl, 1 mM EDTA, 15 μg/mL Strep-tagged-hIntL-1, 0.1% bovine serum albumin (BSA), 0.05% tween-20, 2 μg/mL StrepMAB Classic Conjugated to Oyster 645 (IBA Lifesciences, cat. no.: 2-1555-050). Cells are analyzed consecutively on a BD LSRII flow cytometer using identical instrument setting. Unstained cells, cells stained in the presence of calcium ions (10 mM), and cells stained in the presence of EDTA were directly compared. […]"}}, "data": [{"molecule": "B1", "values": [{"measurement": "signal on microbial glycan array", "setting": "[1]", "result": 26, "unit": "RFU"}, {"measurement": "binding to other immobilized carbohydrate ligands", "setting": "[2]", "result": "not detected"}, {"measurement": "signal on microbial glycan array", "setting": "[3]", "result": 49, "unit": "RFU"}, {"measurement": "fraction of bacteria of the human microbiome bound by hIntL-1", "setting": "[4]", "result": "approximately 25%"}]}]}
